This assay has as its target human RPN2, wild type, full length (human) (UniProt Q99460). The assay is described as follows: MST.

human RPN2, wild type, full length (human), sequence (Q99460 whole entry): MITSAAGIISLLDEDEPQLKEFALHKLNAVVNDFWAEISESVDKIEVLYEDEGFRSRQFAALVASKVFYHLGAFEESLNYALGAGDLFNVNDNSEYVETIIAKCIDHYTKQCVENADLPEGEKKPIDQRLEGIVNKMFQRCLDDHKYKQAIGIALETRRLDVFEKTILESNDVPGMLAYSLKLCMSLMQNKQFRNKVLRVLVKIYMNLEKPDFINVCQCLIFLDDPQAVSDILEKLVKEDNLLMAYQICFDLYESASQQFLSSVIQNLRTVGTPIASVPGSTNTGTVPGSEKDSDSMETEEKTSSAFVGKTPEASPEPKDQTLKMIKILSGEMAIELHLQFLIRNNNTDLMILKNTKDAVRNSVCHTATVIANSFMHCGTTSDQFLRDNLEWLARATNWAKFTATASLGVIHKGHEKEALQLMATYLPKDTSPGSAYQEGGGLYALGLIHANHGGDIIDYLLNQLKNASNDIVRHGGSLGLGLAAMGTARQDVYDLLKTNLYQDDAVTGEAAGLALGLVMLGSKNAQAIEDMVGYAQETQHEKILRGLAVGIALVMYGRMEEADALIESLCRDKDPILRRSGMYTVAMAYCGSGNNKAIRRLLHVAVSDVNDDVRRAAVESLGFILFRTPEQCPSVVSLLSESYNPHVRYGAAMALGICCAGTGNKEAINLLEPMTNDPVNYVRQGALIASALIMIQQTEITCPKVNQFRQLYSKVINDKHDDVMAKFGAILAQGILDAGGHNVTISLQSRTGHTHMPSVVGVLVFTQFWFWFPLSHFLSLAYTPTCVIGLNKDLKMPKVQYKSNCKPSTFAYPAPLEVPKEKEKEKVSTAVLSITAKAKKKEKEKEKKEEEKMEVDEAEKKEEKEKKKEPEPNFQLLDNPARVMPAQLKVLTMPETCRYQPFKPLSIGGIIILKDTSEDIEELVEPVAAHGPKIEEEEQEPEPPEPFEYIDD

“mono-ubiquitin (from UniProt P0CG48 1-76) (natural protein; other documents disagree on this pair)” returned a Kd of 2.12 mM.

For the origin of these results see publication doi:10.1101/2020.12.22.423932.
